The supplement of paper PMC10065799, “High-throughput profiling of sequence recognition by tyrosine kinases and SH2 domains using bacterial peptide display” (eLife, 2023)

Target: SHP2-C SH2
Assay: SH2 binding enrichment of the phosphorylated peptide, bacterial display (enrichment ratio); higher = better substrate or ligand; peptides without Tyr show the background
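Further: peptide library displayed on the E. coli surface as eCPX fusions, selected cells deep-sequenced, score is each peptide's frequency after selection divided by its frequency in the input.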

| SH2 binding enrichment | Sequence |
| --- | --- |
| 0.44 | SEKVVYRRFTE [NCF1_Y41] |
| 2.02 | CTTIHFNFMCN [TP53_Y234_Y234F_YF] |
| 1.38 | IMITDYLLLFR [INSR_Y87] |
| 0.609 | MSSAGYRAAEG [COL6A3_Y543_T538M] |
| 0.664 | NKEAICSGFIR [SMCHD1_Y283_Y283C_YF] |
| 1.55 | CTTIRYNYMCN [TP53_Y234_H233R] |
| 0.984 | YRVDCYKNFVA [FHL1_Y213_C209R] |
| 0.932 | IFGASYVPFAA [RBM47_Y541_YF] |
| 1.12 | VNYGAYINYFK [GLB1_Y488_D491Y] |
| 0.624 | GRRNTYYASIA [ACADM_Y352] |
| 0.262 | RRIHSHRGHLW [VHL_Y112_Y112H] |
| 0.716 | SCRENYSFSEE [LEMD3_Y258_D260Y_YF] |
| 0.623 | YADGVYQALEE [DUOX2_Y70] |
| 0.739 | LENSTYQFICV [CRB1_Y760_R764C_YF] |
| 0.565 | SSMIDYKPLEK [MYOC_Y479_N480K] |
| 0.82 | QRALLYEDTLF [UNC13D_Y56_A59T_YF] |
| 0.49 | GRDQPYSGTGD [TYRO3_Y828_A831T] |

| SH2 binding enrichment | Sequence |
| --- | --- |
| 0.6 | ISDEAYVMAGV [ERBB2_Y772_L768S] |
| 8.03 | TSIGNYFKPWF [DHCR24_Y299_N294T_YF] |
| 0.689 | EARRVYGDIIF [ALDH5A1_Y175_H180Y_YF] |
| 0.851 | YKIYLYTLNDN [FN1_Y1975] |
| 0.525 | EATKGYLDDPT [G6PD_Y322] |
| 1.21 | ALAAPYVLFPG [CEFIP_Y1332_YF] |
| 0.556 | SNFRAYATEPQ [TNNI3_Y29_H34Q_YF] |
| 0.56 | ALADKYHGGGG [HBB_Y146_H144D] |
| 0.667 | ARAGEYGAEAL [HBA1_Y25_H21R] |
| 0.563 | FVGGFYGGCNE [CTSC_Y352_YF] |
| 0.821 | FAADFYKLLGN [ROR2_Y646_YF] |
| 1.04 | LLIMEYAKYGS [RET_Y806_V804M] |
| 0.969 | MGRVNYGAFIN [GLB1_Y485_YF] |
| 0.447 | GADDSYYTARS [ZAP70_Y492] |
| 0.902 | STTIHYNFMCN [TP53_Y234_C229S_YF] |
| 1.44 | MMVGAYSTLEG [ECPAS_Y470] |

Target: c-Src SH2
Assay: as above

| SH2 binding enrichment | Sequence |
| --- | --- |
| 0.42 | SEKVVYRRFTE [NCF1_Y41] |
| 1.93 | CTTIHFNFMCN [TP53_Y234_Y234F_YF] |
| 1.04 | IMITDYLLLFR [INSR_Y87] |
| 0.396 | MSSAGYRAAEG [COL6A3_Y543_T538M] |
| 0.5 | NKEAICSGFIR [SMCHD1_Y283_Y283C_YF] |
| 3.56 | CTTIRYNYMCN [TP53_Y234_H233R] |
| 0.556 | YRVDCYKNFVA [FHL1_Y213_C209R] |
| 0.676 | IFGASYVPFAA [RBM47_Y541_YF] |
| 1.23 | VNYGAYINYFK [GLB1_Y488_D491Y] |
| 0.999 | GRRNTYYASIA [ACADM_Y352] |
| 0.378 | RRIHSHRGHLW [VHL_Y112_Y112H] |
| 0.807 | SCRENYSFSEE [LEMD3_Y258_D260Y_YF] |
| 0.765 | YADGVYQALEE [DUOX2_Y70] |
| 0.457 | LENSTYQFICV [CRB1_Y760_R764C_YF] |
| 0.476 | SSMIDYKPLEK [MYOC_Y479_N480K] |
| 0.547 | QRALLYEDTLF [UNC13D_Y56_A59T_YF] |
| 0.518 | GRDQPYSGTGD [TYRO3_Y828_A831T] |

| SH2 binding enrichment | Sequence |
| --- | --- |
| 0.543 | ISDEAYVMAGV [ERBB2_Y772_L768S] |
| 0.83 | TSIGNYFKPWF [DHCR24_Y299_N294T_YF] |
| 0.485 | EARRVYGDIIF [ALDH5A1_Y175_H180Y_YF] |
| 0.483 | YKIYLYTLNDN [FN1_Y1975] |
| 0.567 | EATKGYLDDPT [G6PD_Y322] |
| 3.49 | ALAAPYVLFPG [CEFIP_Y1332_YF] |
| 0.419 | SNFRAYATEPQ [TNNI3_Y29_H34Q_YF] |
| 0.38 | ALADKYHGGGG [HBB_Y146_H144D] |
| 0.487 | ARAGEYGAEAL [HBA1_Y25_H21R] |
| 0.589 | FVGGFYGGCNE [CTSC_Y352_YF] |
| 0.431 | FAADFYKLLGN [ROR2_Y646_YF] |
| 1.11 | LLIMEYAKYGS [RET_Y806_V804M] |
| 0.585 | MGRVNYGAFIN [GLB1_Y485_YF] |
| 0.556 | GADDSYYTARS [ZAP70_Y492] |
| 0.64 | STTIHYNFMCN [TP53_Y234_C229S_YF] |
| 11.7 | MMVGAYSTLEG [ECPAS_Y470] |
